Assay results: PMC3293039, “Highly stable meso-diaminopimelate dehydrogenase from an Ureibacillus thermosphaericus strain A1 isolated from a Japanese compost: purification, characterization and sequencing” (AMB Express, 2011)

Experiments:
purified protein [1] = substrate: N[C@H](CCC[C@H](N)C(=O)O)C(=O)O; assay: purified protein; type: biochemical, Ureibacillus thermosphaericus; conditions: oxidative deamination, NADP as co-substrate, carbonate-KOH pH 10.5, 50 °C
purified protein [2] = substrate: NC(=O)c1ccc[n+]([C@@H]2O[C@H](COP(=O)(O)OP(=O)(O)OC[C@H]3O[C@@H](n4cnc5c(N)ncnc54)[C@H](OP(=O)(O)O)[C@@H]3O)[C@@H](O)[C@H]2O)c1; assay: purified protein; type: biochemical, Ureibacillus thermosphaericus; conditions: oxidative deamination, meso-DAP as co-substrate, carbonate-KOH pH 10.5, 50 °C, varied: cofactor

B1: meso-DAPDH (meso-diaminopimelate dehydrogenase) (Ureibacillus thermosphaericus) (protein)
chain: SKIRIGIVGYGNLGRGVEAAIQQNPDMELVAVFTRRDPKTVAVKSNVKVLHVDDAQSYKDEIDVMILCGGSATDLPEQGPYFAQYFNTIDSFDTHARIPDYFDAVNAAAEQSGKVAIISVGWDPGLFSLNRLLGEVVLPVGNTYTFWGKGVSQGHSDAIRRIQGVKNAVQYTIPIDEAVNRVRSGENPELSTREKHARECFVVLEEGADPAKVEHEIKTMPNYFDEYDTTVHFISEEELKQNHSGMPHGGFVIRSGKSDEGHKQIIEFSLNLESNPMFTSSALVAYARAAYRLSQNGDKGAKTVFDIPFGLLSPKSPEDLRKELL
notes: native, purified from U. thermosphaericus A1 cells; gene encodes 326 residues; homodimer about 80 kDa, subunit about 40 kDa; N-terminus SKIRIGIVGY (initiator Met removed)
Purified protein [1]
  Km: 1600 µM
Purified protein [2]
  Km: 130 µM
